The results in this text go back to publication PMC12727980.

For data set [1], the target named is T1, GST-KH (Bicc1 KH domains) (UniProt Q99MQ1).
T1 sequence (Q99MQ1 whole entry, looked up): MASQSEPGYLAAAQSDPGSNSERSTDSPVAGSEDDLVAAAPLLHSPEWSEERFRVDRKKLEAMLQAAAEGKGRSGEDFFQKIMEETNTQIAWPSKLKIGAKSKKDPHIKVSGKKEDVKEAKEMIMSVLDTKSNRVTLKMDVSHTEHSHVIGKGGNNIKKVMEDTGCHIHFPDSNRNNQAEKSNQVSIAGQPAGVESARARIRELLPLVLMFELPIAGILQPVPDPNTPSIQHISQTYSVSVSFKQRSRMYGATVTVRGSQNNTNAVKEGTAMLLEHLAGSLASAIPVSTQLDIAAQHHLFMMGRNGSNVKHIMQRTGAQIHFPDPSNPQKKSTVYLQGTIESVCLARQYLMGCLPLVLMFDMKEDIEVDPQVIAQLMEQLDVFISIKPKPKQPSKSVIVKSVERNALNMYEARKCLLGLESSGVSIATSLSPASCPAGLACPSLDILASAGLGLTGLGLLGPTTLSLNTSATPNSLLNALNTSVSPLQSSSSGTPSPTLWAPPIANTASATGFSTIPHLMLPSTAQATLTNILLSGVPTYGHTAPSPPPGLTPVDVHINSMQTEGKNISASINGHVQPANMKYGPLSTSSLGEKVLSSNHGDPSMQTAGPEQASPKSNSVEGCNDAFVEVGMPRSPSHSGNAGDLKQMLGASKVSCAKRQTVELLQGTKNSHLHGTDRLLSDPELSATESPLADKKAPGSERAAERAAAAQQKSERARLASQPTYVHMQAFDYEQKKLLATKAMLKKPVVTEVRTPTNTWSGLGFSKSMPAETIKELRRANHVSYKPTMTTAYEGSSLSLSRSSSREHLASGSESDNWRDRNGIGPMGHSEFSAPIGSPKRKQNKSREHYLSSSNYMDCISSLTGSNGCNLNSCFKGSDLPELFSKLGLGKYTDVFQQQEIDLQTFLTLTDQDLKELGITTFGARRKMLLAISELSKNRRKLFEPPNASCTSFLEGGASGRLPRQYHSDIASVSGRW
Put plainly: competition. The conditions noted are these: EMSA buffer 1X: 10 mM Tris-HCl pH 8.0, 100 mM KCl, 2.5 mM MgCl2, 2.5% glycerol (slightly below 1X in some mixes); about 1 mM DTT, 0.05 ug/uL yeast tRNA; 50 nM …. For orientation: Mobility shift assays separate free from complexed probe on a gel.

For data set [2], the target named is T1, GST-KH (Bicc1 KH domains). In words: EMSA. The note with it: EMSA buffer 1X: 10 mM Tris-HCl pH 8.0, 100 mM KCl, 2.5 mM MgCl2, 2.5% glycerol (slightly below 1X in some mixes); about 1 mM DTT, 0.05 ug/uL yeast tRNA; 50 nM ….

Usually IC50 stands for the concentration needed to halve the response being measured. Read a high IC50 as a need for much substance. As for “GAAGAAAAAGGUGACCUGAAUGAUGUGCAUCGGGUCAAGAGAGCAGAA [Dand5 3'UTR66-110 Mut untagged competitor]”, in data set [1], the IC50 is above 1000 nM.

The Kd is a measure of binding affinity in units of concentration. Consider “GAAGAAAGACGUGACCUGAAUGAUGUGCAUCGGGUCAAGAGAGCAGAAACACGUACCGAGAUGGUGCGC / CGCACCATCTCGGTACGTG [Dand5 3'UTR66-110 WT Tag#2 annealed to Probe #2]”, for which the dissociation constant (Kd) in data set [2] was 109 nM.

In turn, “GAAGAAAGACGUGACCUGAAUGAUGUGCAUCGGGUCAAGAGAGCAGAAUGUCUGGGCAACAGGCUCAGG / CTGAGCCTGTTGCCCAGAC [Dand5 3'UTR66-110 WT Tag#1 annealed to Probe #1]” had a Kd in data set [2] of 103 nM.
